From patent publication US12397036B2, “Peptide exchange protein” (Cambridge Enterprise Limited, priority 2018, dated 2025)

Columns and labels:
Assay type in all cases: cell-based
[1] = target: T1, HLA-A68 (MHC class I) expressed on HeLa cells (Homo sapiens, UniProt P04439, A269V/D140Y/D185E/E176V/E277Q/E87N/F33Y/G231S/I121R/I166T/I218V/L180W/L300P/L318F/N151K/P208A/P217A/Q86R/R138H/R169H/S129P/T345S/V36M); assay: ETV* peptide loading on HeLa cells by exogenous mouse TAPBPR
T1 construct: HLA-A68 (MHC class I) expressed on HeLa; endogenous in cells; host or cells: HeLaM and derivatives (TAPBPR-KO with or without TAPBPR/tapasin constructs, +Her2, Her2-KO, +PDL1, pD-GFP); in some arms HeLaM-HLA-ABC-KO re-expressing HLA-A*68:02

[2] = target: T2, HLA-A2 on SKBR3 and MCF-7 cells (Homo sapiens, UniProt P04439, D140Y/D185E/D98H/E176V/E277Q/G131W/G231S/I119V/I121R/I166T/I218V/L300P/L318F/N151K/N90K/P208A/P217A/Q86G/Q94H/R138H/R169H/T345S); assay: YLL* peptide loading on breast cancer cell lines; settings: for loading of antigenic peptide onto MCF-7 and SKBR3 cells: 100 nM protein, YLL* peptide
T2 construct: endogenous in cells; host or cells: SKBR3 and MCF-7
Experimental: (§1) Bar graphs show (B) the binding YLL* peptide and (C) the binding of TCR-like mAb reagent LMP-1 which recognises the EBV specific peptide YLL in the context of HLA-A2, when SKBR3 and MCF-7 cells were incubated with no peptide, peptide alone, or peptide in the presence of 100 nM soluble TAPBPR or 100 nM TAPBPR-Her2 antibody fusion protein.

HLA-A*68:02 = target: T3, HLA-A*68:02 (Homo sapiens, UniProt P04439, A269V/D140Y/D185E/E176V/E277Q/E87N/F33Y/G231S/I121R/I166T/I218V/L180W/L300P/L318F/N151K/P208A/P217A/Q86R/R138H/R169H/S129P/T345S/V36M); assay: ETV* peptide loading on HeLaM, HeLaM+Her2 and HeLaM^Her2KO cells; settings: Her2-dependent; 10 nM peptide 15 min
T3 construct: HLA-A68 (MHC class I) expressed on HeLa; endogenous in cells; host or cells: HeLaM and derivatives (TAPBPR-KO with or without TAPBPR/tapasin constructs, +Her2, Her2-KO, +PDL1, pD-GFP); in some arms HeLaM-HLA-ABC-KO re-expressing HLA-A*68:02
Description: Note, there is endogenous Her2 on HeLa.

[3] = target: T4, YLL/HLA-A2 complexes on SKBR3 and MCF-7 cells (Homo sapiens, UniProt P04439, D140Y/D185E/D98H/E176V/E277Q/G131W/G231S/I119V/I121R/I166T/I218V/L300P/L318F/N151K/N90K/P208A/P217A/Q86G/Q94H/R138H/R169H/T345S); assay: TCR-like mAb LMP-1 staining of breast cancer cell lines
T4 construct: endogenous in cells; host or cells: SKBR3 and MCF-7
Experimental: as §1

HLA-A2 = target: T5, HLA-A2 (Homo sapiens, UniProt P04439, D140Y/D185E/D98H/E176V/E277Q/G131W/G231S/I119V/I121R/I166T/I218V/L300P/L318F/N151K/N90K/P208A/P217A/Q86G/Q94H/R138H/R169H/T345S); assay: NLV* and YLL* viral peptide loading on HeLaM-ABC^KO cells -/+ HLA-A2; settings: for loading of viral peptides NLV* and YLL* onto surface expressed HLA-A2: 10 nM peptide 15 min
T5 construct: expressed in transfected cells; host or cells: HeLaM-HLA-ABC-KO
Experimental: For the histograms in A & C 100 nM of the indicated recombinant TAPBPR protein was used. […] The TCR is specific for […] peptide presented on HLA-A2 molecules.

B1: mouse TAPBPR: exogenous luminal domains of mouse TAPBPR; SEQ ID NO: 22 (protein)
chain: DPPTAPTTAERQRQPTDIILDCFLVTEDRHRGAFASSGDRERALLVLKQVPVLDDGSLEGITDFQGSTETKQDSPVIFEASVDLVQIPQAEALLHADCSGKAVTCEISKYFLQARQEATFEKAHWFISNMQVSRGGPSVSMVMKTLRDAEVGAVRHPTLNLPLSAQGTVKTQVEFQVTSETQTLNHLLGSSVSLHCSFSMAPDLDLTGVEWRLQHKGSGQLVYSWKTGQGQAKRKGATLEPEELLRAGNASLTLPNLTLKDEGTYICQISTSLYQAQQIMPLNILAPPKVQLHLANKDPLPSLVCSIAGYYPLDVGVTWIREELGGIPAQVSGASFSSLRQSTMGTYSISSTVMADPGPTGATYTCQVAHVSLEEPLTTSMRVLPNPEQRGT
modifications: luminal domains of mouse TAPBPR
loading of ETVSK*QSNV (ETV*) to HLA-A68 [1]: shown to load fluorescent human neoantigen peptide | peptide loading efficiency relative to human TAPBPR [1]: less efficient than human TAPBPR

B2: TAPBPR-Her2-scFv: recombinant TAPBPR fused to a scFv specific for Her2; SEQ ID NO: 8 (protein)
chain: MGTQEGWCLLLCLALSGAAETKPHPAEGQWRAVDVVLDCFLVKDGAHRGALASSEDRARASLVLKQVPVLDDGSLEDFTDFQGGTLAQDDPPIIFEASVDLVQIPQAEALLHADCSGKEVTCEISRYFLQMTETTVKTAAWFMANVQVSGGGPSISLVMKTPRVAKNEVLWHPTLNLPLSPQGTVRTAVEFQVMTQTQSLSFLLGSSASLDCGFSMAPGLDLISVEWRLQHKGRGQLVYSWTAGQGQAVRKGATLEPAQLGMARDASLTLPGLTIQDEGTYICQITTSLYRAQQIIQLNIQASPKVRLSLANEALLPTLICDIAGYYPLDVVVTWTREELGGSPAQVSGASFSSLRQSVAGTYSISSSLTAEPGSAGATYTCQVTHISLEEPLGASTQVVPPERRHVGGGGSGGGGSGGGGSTSADLGSRAMAQVQLVQSGAEVKKPGESLKISCKGSGYSFTSYWIAWVRQMPGKGLEYMGLIYPGDSDTKYSPSFQGQVTISVDKSVSTAYLQWSSLKPSDSAVYFCARHDVGYCSSSNCAKWPEYFQHWGQGTLVTVSSGGGGSGGGGSGGGGSQSVLTQPPSVSAAPGQKVTISCSGSSSNIGNNYVSWYQQLPGTAPKLLIYDHTNRPAGVPDRFSGSKSGTSASLAISGFRSEDEADYYCASWDYTLSGWVFGGGTKLTVLGAAAGGGGS
modifications: TAPBPR-Her2scFv
loading of antigenic peptide onto MCF-7 and SKBR3 cells [2]: efficiently loads antigenic peptides onto both of these breast cancer cell lines | loading of antigenic peptide onto MCF-7 and SKBR3 cells ([2]; listed as TAPBPR-her 2 antibody fusion protein): works extremely efficiently on both these breast cancer cell lines | peptide loading on SKBR3 cell line ([2]; low MHC I expression): efficient peptide loading | loading of exogenous peptide ETV* onto surface of HeLaM cells (HLA-A*68:02): very efficient at loading exogenous peptide | YLL/HLA-A2 complexes accessible for TCR binding versus soluble TAPBPR+peptide or peptide alone [3]: significantly more YLL/HLA-A2 complexes were accessible for TCR binding | binding of TCR-like mAb LMP-1 to treated cells ([3]; fusion protein and peptide): bound extremely well | peptide loading on cells lacking HLA-A, -B and -C expression (HLA-A2): no peptide loading was observed | loading of viral peptides NLV* and YLL* onto surface expressed HLA-A2 (HLA-A2): could load fluorescent variants | loading of viral peptides NLV* and YLL* onto surface expressed HLA-A2 (HLA-A2; listed as TAPBPR-Her2-svFc): shown to load viral peptides onto HeLa cells expressing HLA-A2
